Assay results as given in the DeepSol protein solubility set.

Experiment: soluble on expression in E. coli; label from the status in PepcDB or PDB records

Soluble on expression in E. coli, soluble:
SNAMKLMDVHVLFSGGKDSSLSAVILKKLGYNPHLITINFGVIPSYKLAEETAKILGFKHKVITLDRKIVEKAADMIIEHKYPGPAIQYVHKTVLEILADEYSILADGTRRDDRVPKLSYSEIQSLEMRKNIQYITPLMGFGYKTLRHLASEFFILEEIKSGTKLSSDYEAEIRHILKERGESPEKYFPEHKQTRVVGLKKEI, MELEQREGTMAAVGFEEFSAPPGSELALPPLFGGHILESELETEVEFVSGGLGGSGLRERDEEEEAARGRRRRQRELNRRKYQALGRRCREIEQVNERVLNRLHQVQRITRRLQQERRFLMRVLDSYGDDYRASQFTIVLEDEGSQGTDAPTPGNAENEPPEKETLSPPRRTPAPPEPGSPAPGEGPSGRKRRRVPRDGRRAGNALTPELAPVQIKVEEDFGFEADEALDSSWVSRGPDKLLPYPTLASPASD, MSLARRHELSIALILQDKFTIAAFSGFIDALRLAADDAAKSRQIRVAWKVFAQHRSPVMASCGLRVATEDGLPVPEDYDYIAICGGNSFADAAPAPQLAQLIQRAHRARVGLLGICTGSFAIARAGLIGDRRFCIHWNVAEPFKALFPRAQISVDRIFIDEGDVITCAGSTAAIDLALYLVMRHCGQDRAQQVMRHMMLSQMRPATMPQAHFYQLPPGDSHPRLRRALHFMEQQLDHPPSVGAIARYCGVSVRQLERIFLQALGQTPNAAFRQMRLNYGRYLLSAGTLPVTEIAHIAGFSDAAHFSREFRRAFHETPSAHRRARSHGPDEGHHHHHH, MRVNVPVQVPPPASPPQPSQPAGQAQGGVTAPVIKVLPGNPLPPAGSAFVDDFSSYPTGAVLPMVAPDRYGVYKAPNGTLSPAVAETFTPQGGLDKALRLEAANTAMLTTGAPDWTDYRVSFRFKYETGGTLDVGLFVHGSGDRMLIVRLGWGYTGGVHLIKVAGDQRFTLVSRRELKPLTEALKDQNWHDFAAEARSDGTVRVMVDQQTVIEWKDPDYRAGGIGIGINRLGDRIIWHIDDLKVERL, MPQSFTSIARIGDYILKSPVLSKLCVPVANQFINLAGYKKLGLKFDDLIAEENPIMQTALRRLPEDESYARAYRIIRAHQTELTHHLLPRNEWIKAQEDVPYLLPYILEAEAAAKEKDELDNIEVSK, MANFVQLSETPAACSSNPCGPEAAGTCKETNSGYICRCNQGYRISLDGTGNVTCIVRQESG, MSLGISEAFDLRPDYIISVIKDTKAKLVGFQFPEGLKRKGPELAKIVEEATGAEVLISGDPCFGACDLDRTLLDHVELLFHFGHAELEDVRLSDKVYFIETRSSVDVRPVVEKALPGLKGEKIGLITTVQHVHKLHDVCRVLEAGGKTCVIGRGDSRLAYAGQVLGCNFSAARDEVCDEYLYIGSGDFHPLGVALSTKKRVLAADPFSGEVREVDPSRILRQRSAVIAKSLDAQVFGIIVSSKNGQMRMELASSLKEIAKKHGKEAHLILIDLVTPDQLLQFKVDAFVNTACPRLAVDEVGRFPSPMLTPQEFEIVLGEREWEKLVLDEITEEPVLEHHHHHH

Soluble on expression in E. coli, not soluble:
MRWWLCILVLLLAVPAQALLMPGTRVVEEHHANPFEIDVSSIDNLGDIPVDDPSDGINWSFLYLPYPNCTSGTGDATFIAVSRGSSNNILIYLEGGGACSDFYTCGMGQYVDHASCNATPTATVTTLNPNPWVVSYHYRYGIFDRANPDNPFRDWTIVFVPYSTGDVHWGNRVVKYCYYNPYNLSQVDCSINFTVHHVGFVNAITAIRWAAEQGDFDKVVIAGSSAGGYGTIVHSFYAREIFGKPILAIDDAGPGLNVNQSNFTIQMLFGIETLNETWGAYDNLPDDAQDFLGDRDPIFFVDYFLDHYPDSRFALYEDQMDYTIGVFFNGYTEEQFRDLLLNKACEIKAMHRHNFFRYLPLGTEHTILAYPWFYEKNIHNYRVYEWVWDLIKGKKRDAVELDGVRGIYLACPPGIFAKLEHHHHHH, MEKEKKGAKHELDLSSILQFVAPGTPLRAGMENVLRANTGGLIVVGYNDKVKEVVDGGFHINTAFSPAHLYELAKMDGAIILSDSGQKILYANTQLMPDATISSSETGMRHRTAERVAKQTGCLVIAISERRNVITLYQENMKY, MLGGDWTDGTMTDFKWRHFQGDVILWAVRWYCRYPISYRDLEEMLAERGISVDHTTIYRWVQCYAPEMEKRLRWFWRRGFDPSWRLDETYVKVRGKWTYLYRAVDKRGDTIDFYLSPTRSAKAAKRFLGKALRGLKHWEKPATLNTDKAPSYGAAITELKREGKLDRETAHRQVKYLNNVVEADHGKLKILIKPVRGFKSIPTAYATIKGFEVMRALRKGQARPWCLQPGIRGEVRLVERAFGIGPSALTEAMGMLNHHFAAAA, MANVESLYKELTAEWSKRPPNTVKCGQLLDQLKVALVKMAFLPTDGNDAQSSKKQLILARSVLEVAVEHSVLSKDLLAFERYMAQLKCYYYDYAKIIGESESKYKLLGLNLLYLLSGNRVSDFHTELELLSVDVIQHNQFIRPILALEQYIMEGRYNKIFQAKSTVPVEVYSYFMDLLLETVRDEIGACIEKSYDKISAKDAAKRLNLRVPDEIKAFGAKRQWKLEASGDYSFTDRSVKPKELLPSEELAEQVLSYARDLEMIV, QNEEEADRIGIQVLQRSGFDPQAMPMFMGKLLDESRYSTRPPEMLLTHPLPESRLADARNRANQMRPVVVQSSADFYLAKARTLGMYTNGDNKLGTDLLNAWDKGNIRQQHAAQYGRALLAMESNNFDQARKTLQPLLNADPQNAWYLDLATDIDLGQKKTSDAINRLKNARELRTNPVLQLNLANALLQGGQPGEAATILNRYTFTYKEDGNGWDLLAQAEGALGNRDQELAARAESMALVGQLEQA, MGSDKIHHHHHHMISMKPRYKPDWESLREHTVPKWFDKAKFGIFIHWGIYSVPGWATPTGELGKVPMDAWFFQNPYAEWYENSLRIKESPTWEYHVKTYGENFEYEKFADLFTAEKWDPQEWADLFKKAGAKYVIPTTKHHDGFCLWGTKYTDFNSVKRGPKRDLVGDLAKAVREAGLRFGVYYSGGLDWRFTTEPIRYPEDLSYIRPNTYEYADYAYKQVMELVDLYLPDVLWNDMGWPEKGKEDLKYLFAYYYNKHPEGSVNDRWGVPHWDFKTAEYHVNYPGDLPGYKWEFTRGIGLSFGYNRNEGPEHMLSVEQLVYTLVDVVSKGGNLLLNVGPKGDGTIPDLQKERLLGLGEWLRKYGDAIYGTSVWERCCAKTEDGTEIRFTRKCNRIFVIFLGIPTGEKIVIEDLNLSAGTVRHFLTGERLSFKNVGKNLEITVPKKLLETDSITLVLEAVEE, RLLKVPVFVHESDLSMGLANKIAYKFATIMYTTFEQSKDLIKTKHIGAVTKVMDCKKSFENTDLTSIKEAFDPNLKTLLFIGGSAGAKVFN, MGSDKIHHHHHHMSEETTGQLPDVLWHYTTFDTLTAILTSQCLLASDFRDTNDREEILFGFKALRDAFGTHNTWNTTEGFADPVSAAIRENEERIIEDLESSFLHGQMICLSSARDSLSMWRGYGQLTNGGGNGAVAIGFCAADLQTFCGPSDATLQSSTAHIQQNASGGFEGPSNVDYAFRNFPQLSNALSNEDYSADFHLKWTHYLAHWMKHRKHPAFAEEREYRIWGHAYDGNDKGNSQHVVFVGNHDRRKFHLAPAPDDILGPLTHPLAIQKIMVGPKTDFAKVERFTRNVFQSYTHDRPDMCASKIPFK, MSNSLEERLRANSSAFDGLLALIPAKYYYDEKSQEQWKAKKKTKEQSKNDKLKKLDPEQRDDETSSTLEVMKKKEKDAKPVVLPGEKFKHMKMQKQKEATSKVEGDSDLNVEVNDPMIIAPDEDEEEEEDIKVIFDDEGNEIPLESKKDTTEPDRSVEKKSITEEEKLQRKKNLEALRSKLQAKISDMKSKRKAPGSREAILAQRKRKEELKKRKRLESEQEQDQDEIASDSDMEDIDSDLENNSKKRFKKGKKDSEINADGVMFQNIIFDDGARATSDLQRLRKAGRTKGPAKNDVKSHLKLLEAKKNKMEAKDELEQIKQKEKEKWQKAMLQAEGIKIRDDEKLLRKAIKRKEAQKRKSAIEWSERKRVVEDTISERQKRREENLRIRKDNKGKKRNKQEKMKRKYVGSAVPKKRAGFEGRLKTGKKKGGPK, MSTEQPERADRLLAAAQRRGHERVEARDFGEAILAEVHCPRYLDFLKNGYAQWRALPGASQEITPHVHPPREESGYPVSIIGRAGFHIADTSSPMGPHTWEAALAASHSACTAAQLVIEGAPAAYSLSRPPGHHATRDRAGGFCFLNHTAVAAQWLRHHVARVAILDVDVHHGNGTQDIFYERDDVLHVSLHADPAYFYPFFTGYAQETGRGIGAGCNLNLPLPIGTDDEAFLAALRIACRRVLDFKPDVVVVALGLDTYEGDPLNAFRITTPGFARIGQAIAGLALPTVLVQEGGYLSDELGENLATFLDGFCQHLEHHHHHH, MGSDKIHHHHHHMFNLEEYTEKAQKVMMSIQDIMTRYRQNQLSSEHILLAILEEGNNVGVELLKELNVDINRLKDEVEVFIGKYGVRVPEGASVSQIFITPDARHVIEKAREEARRMGDSKIGTEHLILGMVLSPDSTAFRILSRYGVTPERVYEAIRKIRSTGKTDEAENVEALARFTVDLTQLAREKKLMPVVDREKEIRRVIQILSRRTKNNPVLIGDPGVGKTAVVEGLAQRIVEGKVPLFLRNVRVLKLDMGRLVAGTRFRGDFEERLKRLLDELKRKKGEVILFIDEVHTVVGAGAAEGALDAANIMKPELTTGEIQIIGATTVEEYRKYIEKDRALERRFQPVMVEEPTVEQTIEILKGLRKVFEEHHHVKITDDALEAAAKLSARYITNRFLPDKAVDLIDEAAAYVRLESSYPSEELLKLEEEIKNLEDKINDAVVKGEYEEAAKLKVELQKLKNEYEEKRKKQEKVEPVVDENVVAKIVEQWTGIPVSRIMESEREKLLKLEEFIHQRLVNQEEAVKIVARTIRRARVGIKNPRRPIGVFLFLGPTGVGKTELARTLADVLFGSEDAMIRLDMSEYMEKHSVARLIGAPPGYVGYEEGGQLTEAVRKRPYSVILLDEIEKAHPDVFNILLQVFEDGRLTDGKGNTVDFRNTIIIMTSNIGSEKILEMSENGVRIEIEKELRNTFKPEFLNRIDAIVYFKPLTMEEVKKIVEIMVRQLQEILKEKNISIELTERAKEYLAEAGYVPSLGARPLRRIIELELESMIADKILEGEIKEGDRVLVDADEYGLKIERR, MKTWLPTSTAGSLPKPSWLAQPETLWSPWKLSSEELLAGKRDALRLSLDDQLRAGIDIVSDGEQTRQHFVTTFIEHLSGVDFAKREIVKIRNRYEASVPTVVGAVERQKPVFVEDARYLRQLTSQPIKWALPGPMTMIDTLYDNHYKSREKLAWEFAKILNQEAKELEAAGVDIIQFDEPAFNVFFDEVNDWGIAALERATEGLKCETAVHICYGYGIKANTDWKKTLGSEWRQYEEAFPQLQKSSLDIISLECHNSRVPMDLLELIRGKKVMVGAIDVASHAIETPEEVAGTLRKALAFVDADKLYPSTNCGMAPLPRHVATGKLHALSAGAEIIRRELAAK, MAHHHHHHMLTIVDELKAAVMARHEADAPKMKILKEKYKNEKLSDATIDAAYGGMRGITGLIYESSMLDKEQGICFRGMTIPECCEKIPKSWKGGTSPLPEGMLWLLMTGSIPTDKQVKELHVELHRRADNEAITAATKTIASLPENTHPMTQLSTGVLALQAFSKFAPAYASGKAIKSNFWEYALEDSLDIIARTPYLAAAIYNRLTTGRAAVLNPANPDLDWAANFTNMLGYQDEKFWDCMRLYLSLHADHEGGNVSAHATTLVASALSDPYLSFSAGLNGLAGPLHGLANQESLSYLFEMRDKCKAAGVNMKDRKELAAGLEKLTWERLNAKRVIPGYGHAVLRIPDPRYMCLREYCLKHFPDDELFFLVDTIYSIMPDILKKHGKTKNPFPNVDAHSGMLLQHFGLTEQNFYTVLFGISRQLGALTGVVWDRLQGRPIERPKSITSDALFKKFKIE
